According to patent US20200123558A1 (UNIVERSITY OF SASKATCHEWAN AND NATIONAL RESEARCH COUNCIL OF …, published 2020):
Read-outs that look alike come from different tables or passages of the source. Blank lines part the entries; values can stand above or below the binder they belong to.

Columns and labels:
Test in all cases: yeast 2-hybrid
Apc10 [1] = target: T1, Apc10 (yeast, UniProt P53068 1-250, limits assumed)
T1 construct: Expressed as a Y2H bait fusion; also called yeast Apc10 APC subunit; Apc10 bait
T1 sequence (looked up): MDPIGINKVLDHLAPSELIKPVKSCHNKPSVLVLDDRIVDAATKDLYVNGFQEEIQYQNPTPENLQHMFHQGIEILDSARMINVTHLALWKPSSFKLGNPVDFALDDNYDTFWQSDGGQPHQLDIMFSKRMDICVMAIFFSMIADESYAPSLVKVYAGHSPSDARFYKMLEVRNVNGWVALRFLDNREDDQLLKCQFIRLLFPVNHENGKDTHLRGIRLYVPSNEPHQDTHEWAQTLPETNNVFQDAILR

Apc10 [2] = target: T1, Apc10; remark: listed apart in the source
Apc5 = target: T2, Apc5 (yeast, UniProt Q08683 1-685, limits assumed)
T2 construct: Expressed as a Y2H bait fusion; also called Apc5 bait
T2 sequence (looked up): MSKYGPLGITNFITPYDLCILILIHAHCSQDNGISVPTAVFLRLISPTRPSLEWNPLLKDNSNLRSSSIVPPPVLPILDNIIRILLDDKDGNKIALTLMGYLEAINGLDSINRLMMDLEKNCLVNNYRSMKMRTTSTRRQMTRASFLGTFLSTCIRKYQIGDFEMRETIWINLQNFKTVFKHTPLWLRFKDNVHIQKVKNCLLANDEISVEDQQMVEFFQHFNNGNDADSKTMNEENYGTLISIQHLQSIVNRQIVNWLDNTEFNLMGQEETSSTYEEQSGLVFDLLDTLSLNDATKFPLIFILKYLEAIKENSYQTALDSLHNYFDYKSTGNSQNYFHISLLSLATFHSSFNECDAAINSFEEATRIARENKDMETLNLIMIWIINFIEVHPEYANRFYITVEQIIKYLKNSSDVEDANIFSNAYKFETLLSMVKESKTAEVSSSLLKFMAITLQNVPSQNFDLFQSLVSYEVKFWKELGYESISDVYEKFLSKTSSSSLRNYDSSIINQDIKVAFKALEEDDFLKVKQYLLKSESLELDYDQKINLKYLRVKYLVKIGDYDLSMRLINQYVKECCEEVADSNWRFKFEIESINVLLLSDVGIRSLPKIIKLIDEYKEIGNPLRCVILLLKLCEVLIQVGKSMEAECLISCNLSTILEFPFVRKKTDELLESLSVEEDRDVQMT

B1: peptide C43-4 (peptide)
peptide: NGSSHNDLRVRRLTLISRLC
modifications: Shown in the assay as the variable loop of a Trx scaffold fused to a Y2H prey domain. The letters do not carry this.
notes: also called C43-4 aptamer; Htz1-like peptide; not shown: Thioredoxin (TrxA) scaffold flanking the loop and the Y2H prey fusion domain
binding result (Apc10 [1]): binds

B2: peptide C43-4-3 (peptide, not shown: large carriers)
peptide: NGSSHNDARVRRLTLISRLC
modifications: Presumably shown in the Trx scaffold like its parent. The letters do not carry this.
notes: C43-4 with leucine 8 replaced by alanine; also called C43-L8A
binding result (Apc10 [2]): binds

B3: peptide C2-4B (peptide)
peptide: RMPQWWQWMWV
modifications: Shown as the variable loop of the Trx scaffold on a Y2H prey vector. The letters do not carry this.
notes: also called 11-3; C2-4B aptamer; not shown: TrxA scaffold and Y2H fusion domain
binding result (Apc5): binds

Other lines, results leading:

binding result (Apc5): binds
B4: peptide 24-1 (peptide)
peptide: SKWTWRMCMSWTVDRFAPVPWP
modifications: Displayed in the assay as the variable loop of a TrxA scaffold fused to a Y2H prey domain; carrier not written.
notes: not shown: TrxA (thioredoxin) scaffold halves flanking the loop and the Y2H prey fusion domain

binding result (Apc10 [1]): binds
B5: peptide 50-1 (peptide)
peptide: RRCLSIRTENLAWEGKFLRV
modifications: Displayed in the assay as the variable loop of a TrxA scaffold fused to a Y2H prey domain; carrier not written.
notes: as for B4

binding result (Apc10 [1]): binds
B6: peptide 1-8 (peptide)
peptide: GRMLMTYLMYFMVLWVPRPWGPPL
modifications: Displayed in the assay as the variable loop of a TrxA scaffold fused to a Y2H prey domain; carrier not written.
notes: as for B4
